B1: Azoarcus group I ribozyme (parent)
chain: GUGCCUUGCGCCGGGAAACCACGCAAGGGAUGGUGUCAAAUUCGGCGAAACCUAAGCGCCCGCCCGGGCGUAUGGCAACGCCGAGCCAAGCUUCGGCGCCUGCGCCGAUGAAGGUGUAGAGACUAGACGGCACCCACCUAAGGCAAACGCUAUGGUGAAGGCAUAGUCCAGGGAGUGGCGAAAGUCACACAAACCGG

In the data set the parent is B1. Briefly: reverse-splicing fitness (ratio to wild type); higher = more active; in vitro selection; Mg2+ level not given. An outline of the steps:
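An in vitro group I ribozyme library with randomized positions was T7-transcribed and gel-purified. In triplicate, 10 pmol RNA in EPPS pH 7.5 was reacted with 50 pmoles of a 30-nt RNA substrate for 1 h at 37 °C across several added MgCl2 levels (1–48 mM), then stopped with EDTA. Products were reverse transcribed from a substrate-complementary primer, PCR-amplified and sequenced (HiSeq 4000). Fitness is a variant's read proportion after selection over that before, normalised to wild type.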
Consider GUGCCUUGCGCCGGGAAACCACGCAAGGGAUGGUGUCAAAUUCGGCGAAACCUAAGCGCCCGCCCGGGCGUAUGGCAACGCCGAGCCAAGCUUCGGCGCCUGCGCCGAUGGAGGUGUAGCGACUAGACGGCACCCACCUAAGGCCAACGUUAUGGUGAAGGCAUAGUCCAGGGAGAGGCGAAAGUCACACAAACCGG, for which the reverse-splicing fitness stood at 0.17.
The result for GUGCCUUGCGCCGGGAAACCACGCAAGGGAUGGUGUCAAAUUCGGCGAAACCUAAGCGCCCGCCCGGGCGUAUGGCAACGCGGAGCCAAGCUUCGGCGCCUGCGCCGAUGGAGGUGUAGCGACUAGACGGCACCCACCUAAGGCGAACGAUAUGGUGAAGGCAUAGUCGAGGGAGAGGCGAAAGUCACACAAACCGG reads 0.02; that for GUGCCUUGCGCCGGGAAACCACGCAAGGGAUGGUGUCAAAUUCGGCGAAACCUAAGCGCCCGCCCGGGCGUAUGGCAACGCGGAGCCAAGCUUCGGCGCCUGCGCCGAUGGAGGUGUAGUGACUAGACGGCACCCACCUAAGGCUAACGAUAUGGUGAAGGCAUAGUCUAGGGAGGGGCGAAAGUCACACAAACCGG, 0.00215; that for GUGCCUUGCGCCGGGAAACCACGCAAGGGAUGGUGUCAAAUUCGGCGAAACCUAAGCGCCCGCCCGGGCGUAUGGCAACGCAGAGCCAAGCUUCGGCGCCUGCGCCGAUGAAGGUGUAGUGACUAGACGGCACCCACCUAAGGCGAACGAUAUGGUGAAGGCAUAGUCCAGGGAGUGGCGAAAGUCACACAAACCGG, 0.0231.
As to GUGCCUUGCGCCGGGAAACCACGCAAGGGAUGGUGUCAAAUUCGGCGAAACCUAAGCGCCCGCCCGGGCGUAUGGCAACGCUGAGCCAAGCUUCGGCGCCUGCGCCGAUGAAGGUGUAGCGACUAGACGGCACCCACCUAAGGCCAACGAUAUGGUGAAGGCAUAGUCGAGGGAGUGGCGAAAGUCACACAAACCGG, the reverse-splicing fitness came to 0.00551.
GUGCCUUGCGCCGGGAAACCACGCAAGGGAUGGUGUCAAAUUCGGCGAAACCUAAGCGCCCGCCCGGGCGUAUGGCAACGCCGAGCCAAGCUUCGGCGCCUGCGCCGAUGUAGGUGUAGGGACUAGACGGCACCCACCUAAGGCAAACGGUAUGGUGAAGGCAUAGUCUAGGGAGCGGCGAAAGUCACACAAACCGG: the reverse-splicing fitness is 0.0149.
For GUGCCUUGCGCCGGGAAACCACGCAAGGGAUGGUGUCAAAUUCGGCGAAACCUAAGCGCCCGCCCGGGCGUAUGGCAACGCUGAGCCAAGCUUCGGCGCCUGCGCCGAUGAAGGUGUAGUGACUAGACGGCACCCACCUAAGGCCAACGAUAUGGUGAAGGCAUAGUCAAGGGAGAGGCGAAAGUCACACAAACCGG, the reverse-splicing fitness amounted to 0.00177.
The result for GUGCCUUGCGCCGGGAAACCACGCAAGGGAUGGUGUCAAAUUCGGCGAAACCUAAGCGCCCGCCCGGGCGUAUGGCAACGCCGAGCCAAGCUUCGGCGCCUGCGCCGAUGUAGGUGUAGCGACUAGACGGCACCCACCUAAGGCGAACGAUAUGGUGAAGGCAUAGUCAAGGGAGCGGCGAAAGUCACACAAACCGG reads 0.0204; that for GUGCCUUGCGCCGGGAAACCACGCAAGGGAUGGUGUCAAAUUCGGCGAAACCUAAGCGCCCGCCCGGGCGUAUGGCAACGCAGAGCCAAGCUUCGGCGCCUGCGCCGAUGAAGGUGUAGGGACUAGACGGCACCCACCUAAGGCCAACGUUAUGGUGAAGGCAUAGUCAAGGGAGAGGCGAAAGUCACACAAACCGG, 0.0121.
Regarding GUGCCUUGCGCCGGGAAACCACGCAAGGGAUGGUGUCAAAUUCGGCGAAACCUAAGCGCCCGCCCGGGCGUAUGGCAACGCGGAGCCAAGCUUCGGCGCCUGCGCCGAUGUAGGUGUAGGGACUAGACGGCACCCACCUAAGGCAAACGAUAUGGUGAAGGCAUAGUCGAGGGAGGGGCGAAAGUCACACAAACCGG, the reverse-splicing fitness is 0.00607.
The value for GUGCCUUGCGCCGGGAAACCACGCAAGGGAUGGUGUCAAAUUCGGCGAAACCUAAGCGCCCGCCCGGGCGUAUGGCAACGCCGAGCCAAGCUUCGGCGCCUGCGCCGAUGUAGGUGUAGGGACUAGACGGCACCCACCUAAGGCAAACGGUAUGGUGAAGGCAUAGUCAAGGGAGGGGCGAAAGUCACACAAACCGG was 0.0057.
The value for GUGCCUUGCGCCGGGAAACCACGCAAGGGAUGGUGUCAAAUUCGGCGAAACCUAAGCGCCCGCCCGGGCGUAUGGCAACGCUGAGCCAAGCUUCGGCGCCUGCGCCGAUGUAGGUGUAGGGACUAGACGGCACCCACCUAAGGCGAACGCUAUGGUGAAGGCAUAGUCUAGGGAGCGGCGAAAGUCACACAAACCGG was 0.0159; that for GUGCCUUGCGCCGGGAAACCACGCAAGGGAUGGUGUCAAAUUCGGCGAAACCUAAGCGCCCGCCCGGGCGUAUGGCAACGCAGAGCCAAGCUUCGGCGCCUGCGCCGAUGUAGGUGUAGUGACUAGACGGCACCCACCUAAGGCUAACGUUAUGGUGAAGGCAUAGUCAAGGGAGCGGCGAAAGUCACACAAACCGG was 0.00305; that for GUGCCUUGCGCCGGGAAACCACGCAAGGGAUGGUGUCAAAUUCGGCGAAACCUAAGCGCCCGCCCGGGCGUAUGGCAACGCCGAGCCAAGCUUCGGCGCCUGCGCCGAUGGAGGUGUAGGGACUAGACGGCACCCACCUAAGGCAAACGCUAUGGUGAAGGCAUAGUCUAGGGAGAGGCGAAAGUCACACAAACCGG was 0.0845.
The result for GUGCCUUGCGCCGGGAAACCACGCAAGGGAUGGUGUCAAAUUCGGCGAAACCUAAGCGCCCGCCCGGGCGUAUGGCAACGCAGAGCCAAGCUUCGGCGCCUGCGCCGAUGAAGGUGUAGUGACUAGACGGCACCCACCUAAGGCUAACGAUAUGGUGAAGGCAUAGUCAAGGGAGAGGCGAAAGUCACACAAACCGG reads 0.0022; that for GUGCCUUGCGCCGGGAAACCACGCAAGGGAUGGUGUCAAAUUCGGCGAAACCUAAGCGCCCGCCCGGGCGUAUGGCAACGCGGAGCCAAGCUUCGGCGCCUGCGCCGAUGUAGGUGUAGAGACUAGACGGCACCCACCUAAGGCGAACGCUAUGGUGAAGGCAUAGUCGAGGGAGUGGCGAAAGUCACACAAACCGG, 0.00953.
For the variant GUGCCUUGCGCCGGGAAACCACGCAAGGGAUGGUGUCAAAUUCGGCGAAACCUAAGCGCCCGCCCGGGCGUAUGGCAACGCUGAGCCAAGCUUCGGCGCCUGCGCCGAUGUAGGUGUAGUGACUAGACGGCACCCACCUAAGGCCAACGUUAUGGUGAAGGCAUAGUCAAGGGAGUGGCGAAAGUCACACAAACCGG, the reverse-splicing fitness worked out at 0.0022.
The value for GUGCCUUGCGCCGGGAAACCACGCAAGGGAUGGUGUCAAAUUCGGCGAAACCUAAGCGCCCGCCCGGGCGUAUGGCAACGCCGAGCCAAGCUUCGGCGCCUGCGCCGAUGGAGGUGUAGAGACUAGACGGCACCCACCUAAGGCGAACGUUAUGGUGAAGGCAUAGUCGAGGGAGUGGCGAAAGUCACACAAACCGG was 0.101; that for GUGCCUUGCGCCGGGAAACCACGCAAGGGAUGGUGUCAAAUUCGGCGAAACCUAAGCGCCCGCCCGGGCGUAUGGCAACGCUGAGCCAAGCUUCGGCGCCUGCGCCGAUGGAGGUGUAGAGACUAGACGGCACCCACCUAAGGCUAACGCUAUGGUGAAGGCAUAGUCCAGGGAGUGGCGAAAGUCACACAAACCGG was 0.462.
Consider GUGCCUUGCGCCGGGAAACCACGCAAGGGAUGGUGUCAAAUUCGGCGAAACCUAAGCGCCCGCCCGGGCGUAUGGCAACGCUGAGCCAAGCUUCGGCGCCUGCGCCGAUGCAGGUGUAGCGACUAGACGGCACCCACCUAAGGCCAACGGUAUGGUGAAGGCAUAGUCCAGGGAGGGGCGAAAGUCACACAAACCGG, for which the reverse-splicing fitness worked out at 0.00262.
As for GUGCCUUGCGCCGGGAAACCACGCAAGGGAUGGUGUCAAAUUCGGCGAAACCUAAGCGCCCGCCCGGGCGUAUGGCAACGCCGAGCCAAGCUUCGGCGCCUGCGCCGAUGCAGGUGUAGGGACUAGACGGCACCCACCUAAGGCGAACGCUAUGGUGAAGGCAUAGUCAAGGGAGGGGCGAAAGUCACACAAACCGG, the reverse-splicing fitness amounted to 0.00458.
With GUGCCUUGCGCCGGGAAACCACGCAAGGGAUGGUGUCAAAUUCGGCGAAACCUAAGCGCCCGCCCGGGCGUAUGGCAACGCCGAGCCAAGCUUCGGCGCCUGCGCCGAUGCAGGUGUAGUGACUAGACGGCACCCACCUAAGGCCAACGCUAUGGUGAAGGCAUAGUCCAGGGAGAGGCGAAAGUCACACAAACCGG, the reverse-splicing fitness was determined as 0.244.
The result for GUGCCUUGCGCCGGGAAACCACGCAAGGGAUGGUGUCAAAUUCGGCGAAACCUAAGCGCCCGCCCGGGCGUAUGGCAACGCUGAGCCAAGCUUCGGCGCCUGCGCCGAUGUAGGUGUAGCGACUAGACGGCACCCACCUAAGGCUAACGAUAUGGUGAAGGCAUAGUCCAGGGAGAGGCGAAAGUCACACAAACCGG reads 0.0115; that for GUGCCUUGCGCCGGGAAACCACGCAAGGGAUGGUGUCAAAUUCGGCGAAACCUAAGCGCCCGCCCGGGCGUAUGGCAACGCCGAGCCAAGCUUCGGCGCCUGCGCCGAUGCAGGUGUAGAGACUAGACGGCACCCACCUAAGGCGAACGCUAUGGUGAAGGCAUAGUCAAGGGAGCGGCGAAAGUCACACAAACCGG, 0.0307; that for GUGCCUUGCGCCGGGAAACCACGCAAGGGAUGGUGUCAAAUUCGGCGAAACCUAAGCGCCCGCCCGGGCGUAUGGCAACGCAGAGCCAAGCUUCGGCGCCUGCGCCGAUGUAGGUGUAGCGACUAGACGGCACCCACCUAAGGCUAACGGUAUGGUGAAGGCAUAGUCGAGGGAGCGGCGAAAGUCACACAAACCGG, 0.00626.
Take GUGCCUUGCGCCGGGAAACCACGCAAGGGAUGGUGUCAAAUUCGGCGAAACCUAAGCGCCCGCCCGGGCGUAUGGCAACGCAGAGCCAAGCUUCGGCGCCUGCGCCGAUGGAGGUGUAGGGACUAGACGGCACCCACCUAAGGCGAACGUUAUGGUGAAGGCAUAGUCCAGGGAGAGGCGAAAGUCACACAAACCGG: the reverse-splicing fitness is 0.00945.
The result for GUGCCUUGCGCCGGGAAACCACGCAAGGGAUGGUGUCAAAUUCGGCGAAACCUAAGCGCCCGCCCGGGCGUAUGGCAACGCUGAGCCAAGCUUCGGCGCCUGCGCCGAUGCAGGUGUAGUGACUAGACGGCACCCACCUAAGGCUAACGGUAUGGUGAAGGCAUAGUCUAGGGAGGGGCGAAAGUCACACAAACCGG reads 0.0025; that for GUGCCUUGCGCCGGGAAACCACGCAAGGGAUGGUGUCAAAUUCGGCGAAACCUAAGCGCCCGCCCGGGCGUAUGGCAACGCAGAGCCAAGCUUCGGCGCCUGCGCCGAUGCAGGUGUAGAGACUAGACGGCACCCACCUAAGGCUAACGAUAUGGUGAAGGCAUAGUCAAGGGAGGGGCGAAAGUCACACAAACCGG, 0.00891; that for GUGCCUUGCGCCGGGAAACCACGCAAGGGAUGGUGUCAAAUUCGGCGAAACCUAAGCGCCCGCCCGGGCGUAUGGCAACGCAGAGCCAAGCUUCGGCGCCUGCGCCGAUGGAGGUGUAGCGACUAGACGGCACCCACCUAAGGCCAACGAUAUGGUGAAGGCAUAGUCAAGGGAGGGGCGAAAGUCACACAAACCGG, 0.00558.
For the variant GUGCCUUGCGCCGGGAAACCACGCAAGGGAUGGUGUCAAAUUCGGCGAAACCUAAGCGCCCGCCCGGGCGUAUGGCAACGCUGAGCCAAGCUUCGGCGCCUGCGCCGAUGGAGGUGUAGAGACUAGACGGCACCCACCUAAGGCCAACGCUAUGGUGAAGGCAUAGUCGAGGGAGGGGCGAAAGUCACACAAACCGG, the reverse-splicing fitness is 0.00461.

The values above are taken from the RNAGym collection of RNA variant scans (doi:10.1093/molbev/msab373).
